Target: T1, 사람 ICAM4 (intercellular adhesion molecule 4) (human, UniProt Q14773 31-271)
T1 construct: whole, on cells; Always on cells that carry it naturally; no recombinant ICAM4 was used; also called CD242; 1E1 항원
T1 sequence (looked up): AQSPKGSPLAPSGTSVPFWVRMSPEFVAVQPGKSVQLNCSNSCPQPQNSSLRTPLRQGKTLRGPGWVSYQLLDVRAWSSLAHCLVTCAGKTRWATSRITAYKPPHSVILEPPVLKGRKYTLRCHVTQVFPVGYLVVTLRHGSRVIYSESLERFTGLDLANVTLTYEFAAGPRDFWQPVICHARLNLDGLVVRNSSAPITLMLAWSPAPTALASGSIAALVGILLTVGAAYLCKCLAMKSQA
Assay: binding affinity compared with the chimeric antibody (Fig. 5)

B1: 항-ICAM4 인간화항체 VH2A 및 VL2C의 조합 (antibody, V domains shown)
VH: QVQLVESGGGLVKPGGSLRLSCAVSGFSLTDYGVGWIRQAPGKGLEWLGVMWGGGRTYYNAPVKSRLTISKDNAKNSVYLQMNSLRAEDTAVYYCVKTGQDYAVDYWGQGTLVTVSS
VL: EIVLTQSPATLSLSPGERATLSCRASKSVSKYLAWYQEKPGQANRLLIYSGSTLQSGIPARFSGSGSGTDFTLTISSLEPEDFAVYYCQQHNVYPWTFGQGTKVEIK
notes: also called VH2A/VL2C
B1: binds.

From patent KR20190060702A (dated 2019)
